Consider five molecules from patent US20260085105A1 (Amgen, published 2026).

For test [1], the target named is T1, ATOH8 peptide on HLA-A*02:01 (human).
T1 peptide: VLEDGPWKTV
In words: killing.

For test [2], the target named is T2, AK2 peptide on HLA-A*02:01 (human).
T2 peptide: FLLDGFPRTV
Kind of test: killing.

The target of test [3] is T3, DYNC1H1 peptide on HLA-A*02:01 (human).
T3 peptide: FLSDPQVHTV
In words: killing.

Test [4] concerns the target T4, DPYSL4 peptide on HLA-A*02:01 (human).
T4 peptide: GLYDGPVHEV
Kind of test: killing.

Test [5] has as its target T5, UTRN peptide on HLA-A*02:01 (human).
T5 peptide: NQWDGTQHGV
Kind of test: killing.

Test [6] deals with T6, PLD4 peptide on HLA-A*02:01 (human).
T6 peptide: GLFDGVPTTA
In words: killing.

Test [7] concerns the target T7, PGRMC1 peptide on HLA-A*02:01 (human).
T7 peptide: LLKEGEEPTV
Kind of test: killing.

Test [8] has as its target T8, ACTB peptide on HLA-A*02:01 (human).
T8 peptide: DSGDGVTHTV
In words: killing.

Test [9] has as its target T9, KEAP1 peptide on HLA-A*02:01 (human).
T9 peptide: GVIDGHIYAV
Kind of test: killing.

In test [10] the target is T10, OSBPL10 peptide on HLA-A*02:01 (human).
T10 peptide: SQYSGQLHEV
Kind of test: killing.

Test [11] addresses T11, MYOF peptide on HLA-A*02:01 (human).
T11 peptide: FFVYDEPGHAV
In words: killing.

Test [12] addresses T12, COX14 peptide on HLA-A*02:01 (human).
T12 peptide: TVYGGYLCSV
In words: killing.

For test [13], the target named is T13, XIAP peptide on HLA-A*02:01 (human).
T13 peptide: FLYTGEGTV
Kind of test: killing.

Test [14] addresses T14, IMPDH1 peptide on HLA-A*02:01 (human).
T14 peptide: IIADGGIQTV
In words: killing.

Test [15] deals with T15, DPYSL2 peptide on HLA-A*02:01 (human).
T15 peptide: GLYDGPVCEV
Kind of test: killing.

The target of test [16] is T16, STXBP5 peptide on HLA-A*02:01 (human).
T16 peptide: YTYDEAIHSV
Kind of test: killing.

Test [17] addresses T17, CDNP2 peptide on HLA-A*02:01 (human).
T17 peptide: GVYGGSVHEA
Kind of test: killing.

The target of test [18] is T18, FAS peptide on HLA-A*02:01 (human).
T18 peptide: ALLDGRLQVV
In words: killing.

Test [19] deals with T19, VPS13B peptide on HLA-A*02:01 (human).
T19 peptide: GLMDGSPHFL
In words: killing.

Test [20] concerns the target T20, DDAH peptide on HLA-A*02:01 (human).
T20 peptide: VLFTGREFFV
In words: killing.

Test [21] addresses T21, MAGE-A4 peptide on HLA-A*02:01 (human).
T21 peptide: GVYDGREHTV
In words: multimer staining.

The target of test [22] is T22, SYNE3 peptide on HLA-A*02:01 (human).
T22 peptide: KLLDLQVRV
Kind of test: killing.

For test [23], the target named is T23, GPC5 peptide on HLA-A*02:01 (human).
T23 peptide: KLLEQVNRI
In words: killing.

Test [24] deals with T24, GRP78 peptide on HLA-A*02:01 (human).
T24 peptide: KVTHAVVTV
In words: killing.

Test [25] deals with T25, MADD peptide on HLA-A*02:01 (human).
T25 peptide: ILLEHKVVL
Kind of test: killing.

Test [26] deals with T26, TSC1 peptide on HLA-A*02:01 (human).
T26 peptide: SLLGHVIRL
Kind of test: killing.

Test [27] addresses T27, HNRNPR peptide on HLA-A*02:01 (human).
T27 peptide: KVWGNVVTV
In words: killing.

Test [28] has as its target T28, NSD1 peptide on HLA-A*02:01 (human).
T28 peptide: KVQEQVHKV
Kind of test: killing.

Test [29] has as its target T29, TP2 peptide on HLA-A*02:01 (human).
T29 peptide: KILEDVVGV
Kind of test: killing.

Test [30] concerns the target T30, TRMT1L peptide on HLA-A*02:01 (human).
T30 peptide: VALEHFVLV
Kind of test: killing.

The target in test [31] is T31, PSME2 peptide on HLA-A*02:01 (human).
T31 peptide: KVLERVNAV
Kind of test: killing.

In test [32] the target is T32, HERC4 peptide on HLA-A*02:01 (human).
T32 peptide: KVLEILHRV
Kind of test: killing.

The target of test [33] is T33, ANO5 peptide on HLA-A*02:01 (human).
T33 peptide: IVMEHVVFL
In words: killing.

For test [34], the target named is T34, RG1L peptide on HLA-A*02:01 (human).
T34 peptide: FLLETVVRV
Kind of test: killing.

The target in test [35] is T35, HTR5A peptide on HLA-A*02:01 (human).
T35 peptide: KVLETLVTV
In words: killing.

For test [36], the target named is T36, PTRF peptide on HLA-A*02:01 (human).
T36 peptide: KLLEKVRKV
In words: killing.

For test [37], the target named is T37, CNOT1 peptide on HLA-A*02:01 (human).
T37 peptide: KVLGIVVGV
In words: killing.

For test [38], the target named is T38, MIA3 peptide on HLA-A*02:01 (human).
T38 peptide: KVLDKVFRA
Kind of test: killing.

For test [39], the target named is T39, ATAD2 peptide on HLA-A*02:01 (human).
T39 peptide: KILEALQRV
Kind of test: killing.

In test [40] the target is T40, AXIN1 peptide on HLA-A*02:01 (human).
T40 peptide: ILDEHVQRV
Kind of test: killing.

Test [41] has as its target T41, KIAA1033 peptide on HLA-A*02:01 (human).
T41 peptide: KVLNKVITV
In words: killing.

Test [42] deals with T42, MAGE-A4 (100% identical in MAGEA8) peptide on HLA-A*02:01 (human).
T42 peptide: KVLEHVVRV
Kind of test: multimer staining.

Another test concerns the target … (MAGEA8)/HLA-A*02:01 (human). Kind of test: cell-based or functional assay.

B1: TCR8 of Tables 1A and 1B (printed TCR18) (TCR, V domains shown)
Valpha: KQEVTQIPAALSVPEGENLVLNCSFTDSAIYNLQWFRQDPGKGLTSLLLIQSSQREQTSGRLNASLDKSSGRSTLYIAASQPGDSATYLCAVDAHARLMFGDGTQLVVKP
Vbeta: EPEVTQTPSHQVTQMGQEVILRCVPISNHLYFYWYRQILGQKVEFLVSFYNNEISEKSEIFDDQFSVERPDGSNFTLKIRSTKLEDSAMYFCASISGEQYFGPGTRLTVT
For B1, the binding result in test [1], in test [2], in test [3], in test [4], in test [5] and in [6] was “no recognition” throughout. Besides, the binding result in test [7], in test [8], in [9], in [10], in [11] and in test [12] was “no recognition” in each case. The binding result in test [13], in test [14], in [15], in test [16], in test [17] and in test [18] was “no recognition” each time. The binding result in [19] is recorded as “no recognition”; in test [20], “no recognition”; in test [21], “recognises”.

B2: TCR6 of Tables 1A and 1B (TCR7 of the examples) (TCR, V domains shown)
Valpha: AQTVTQSQPEMSVQEAETVTLSCTYDTSENNYYLFWYKQPPSRQMILVIRQEAYKQQNATENRFSVNFQKAAKSFSLKISDSQLGDTAMYFCAFVDSGYALNFGKGTSLLVTP
Vbeta: DVKVTQSSRYLVKRTGEKVFLECVQDMDHENMFWYRQDPGLGLRLIYFSYDVKMKEKGDIPEGYSVSREKKERFSLILESASTNQTSMYLCASSLDGARTQYFGPGTRLTVL
As for B2, the binding result in [22], in test [23], in [24], in test [25], in [26] and in test [27] was “no recognition” each time. In addition, the binding result in test [28], in test [29], in [30], in test [31], in test [32] and in [33] was “no recognition” in each case. Further, the binding result in test [34], in [35], in test [36], in [37], in test [38] and in test [39] was “no recognition” each time. The figures for the binding result in test [40], in test [41] and in [42] were “no recognition”, “no recognition” and “recognises”, respectively.

B3: TCR4 (TCR10) (TCR, V domains shown)
Valpha: LAKTTQPISMDSYEGQEVNITCSHNNIATNDYITWYQQFPSQGPRFIIQGYKTKVTNEVASLFIPADRKSSTLSLPRVSLSDTAVYYCLVGGDEDMRFGAGTRLTVKP
Vbeta: EAGVAQSPRYKIIEKRQSVAFWCNPISGHATLYWYQQILGQGPKLLIQFQNNGVVDDSQLPKDRFSAERLKGVDSTLKIQPAKLEDSAVYLCASSLEYGPTYEQYFGPGTRLTVT
Regarding B3, the binding result in test [22], in test [23], in test [24], in [25], in test [26] and in test [27] was “no recognition” throughout. Further, the binding result in test [28], in test [29], in test [30], in test [31], in [32] and in [33] was “no recognition” in each case. Further, the binding result in test [34], in [35], in [36], in test [37], in [38] and in test [39] was “no recognition” each time. Besides, the binding result was “no recognition” in [40], “no recognition” in test [41] and “recognises” in test [42].

B4: TCR18 (running number 7 of Table 1A) (TCR, V domains shown)
V domain 1: AQTVTQSQPEMSVQEAETVTLSCTYDTSENNYYLFWYKQPPSRQMILVIRQEAYKQQNATENRFSVNFQKAAKSFSLKISDSQLGDTAMYFCALLDSGNTPLVFGKGTRLSVIA
V domain 2: NAGVTQTPKFRILKIGQSMTLQCAQDMNHNYMYWYRQDPGMGLKLIYYSVGAGITDKGEVPNGYNVSRSTTEDFPLRLELAAPSQTSVYFCASSYTNNEQFFGPGTRLTVLE
Consider B4, for which, in the test with … (MAGEA8)/HLA-A*02:01, the “fold difference in EC50 between the MAGEA4 and MAGEA8 peptides, TDCC on peptide-loaded T2 cells” value was above 1000 fold.

B5: TCR7 of Tables 1A and 1B (TCR18) (TCR, V domains shown)
Valpha: AQTVTQSQPEMSVQEAETVTLSCTYDTSENNYYLFWYKQPPSRQMILVIRQEAYKQQNATENRFSVNFQKAAKSFSLKISDSQLGDTAMYFCALLDSGNTPLVFGKGTRLSVIA
Vbeta: NAGVTQTPKFRILKIGQSMTLQCAQDMNHNYMYWYRQDPGMGLKLIYYSVGAGITDKGEVPNGYNVSRSTTEDFPLRLELAAPSQTSVYFCASSYTNNEQFFGPGTRLTVL
Regarding B5, the binding result in [1], in test [2], in [3], in test [4], in test [5] and in test [6] was “no recognition” each time. Further, the binding result in [7], in [8], in test [9], in test [10], in [11] and in [12] was “no recognition” each time. Moreover, the binding result in test [13], in test [14], in test [15], in [16], in [17] and in test [18] was “no recognition” each time. Moreover, the binding result is on record as “no recognition” in [19], “no recognition” in [20] and “recognises” in test [21].
